According to paper PMC12541693:

Tests used:
Test in all cases: potentiometry
Conditions in all cases: 298.2 K; 0.1 M KCl; none (unbuffered, KCl background); metal-free (apo) peptide
[1] = molecular target: Tyr12 (position 12, VMVDAYKG---)
Asp10 (position 10, …-) = molecular target: Asp10 (position 10, …-)
[2] = molecular target: Lys13 (position 13, MVDAYKG----)
Asp11 (position 11, …-) = molecular target: Asp11 (position 11, …-)
[3] = molecular target: Lys14 (position 14, MVDAYKG----)
[4] = molecular target: Tyr13 (position 13, VMVDAYKG---)

Row | Protein | pKa [1] | pKa (Asp10 (position 10, …-)) | pKa [2] | pKa (Asp11 (position 11, …-)) | pKa [3] | pKa [4]
1 | GWHHQIVMVDAYKG [Pep1 (bis-histidyl minimal SpyTag peptide) (synthetic construct (SpyTag-derived))] | 9.51(7) | 3.65(4) | 10.10(9) |  |  | 
2 | GWHHAQIVMVDAYKG [Pep2 (bis-histidyl minimal SpyTag peptide with Ala spacer) (synthetic construct (SpyTag-derived))] |  |  |  | 3.67(5) | 10.16(5) | 9.7(1)
